# Paper PMC8361696, “Regulation of aquaporin‐4 expression in the central nervous system investigated using M23‐AQP4 null mouse” (Glia, 2021)
# Biological target: the molecule itself
# Experiment: native gel or EMSA; blue native PAGE (3-9% gradient) of 50 ug spinal cord lysate in BN buffer (1% Triton X-100, 12 mM NaCl, 500 mM 6-aminohexanoic acid, 20 mM Bis-Tris pH 7.0), immunoblot with anti-AQP4
protein,measurement,value
"M1-AQP4 (M23I) of M23-null mouse spinal cord (natural protein, mouse (endogenous in spinal cord), UniProt P55088 1-323, looked up, mouse aquaporin-4, M1-AQP4 isoform with the methionine codon at position 23 replaced by isoleucine, so no M23-AQP4 is made; The mouse model is described in de Bellis et al., 2020; also called M1M23I; AQP4 of M23-null mice; source: endogenous, M23-null (CRISPR/Cas9 M23I knock-in) mouse spinal cord, lysate in BN buffer (1% Triton X-100)) MSDGAAARRWGKCGHSCSRESIIVAFKGVWTQAFWKAVSAEFLATLIFVLLGVGSTINWGGSENPLPVDMVLISLCFGLSIATMVQCFGHISGGHINPAVTVAMVCTRKISIAKSVFYIIAQCLGAIIGAGILYLVTPPSVVGGLGVTTVHGNLTAGHGLLVELIITFQLVFTIFASCDSKRTDVTGSIALAIGFSVAIGHLFAINYTGASMNPARSFGPAVIMGNWANHWIYWVGPIMGAVLAGALYEYVFCPDVELKRRLKEAFSKAAQQTKGSYMEVEDNRSQVETEDLILKPGVVHVIDIDRGEEKKGKDSSGEVLSSV",stoichiometry N,4
